PMC4735607, “Reversal of axonal growth defects in an extraocular fibrosis model by engineering the kinesin–microtubule interface” (Nature Communications, 2016)

Experiments:
[1] = target: T1, microtubules of recombinant human TUBA1B/TUBB3 tubulin with TUBB3 R262A (human, UniProt P68363-1 1-451; Q13509-1 1-450, K40R | R262A); experiment: co-sedimentation; BG-549-labelled HK349 with MTs; x2 MA buffer, 1 mg/ml casein, 40 uM taxol, 1 mM ADP and 1 U/ml hexokinase (ADP state); conditions: both partners purified
T1 construct: human beta3-tubulin TUBB3 with the synthetic mutation R262A; also called R262A MTs; β-R262A MT; source: HighFive insect cells (baculovirus), purified (DEAE Sepharose, TALON, anti-FLAG resin), polymerized with taxol; not shown: FLAG (DYKDDDDK)
T1 sequence (P68363 whole entry K40R, chain 1 of 2): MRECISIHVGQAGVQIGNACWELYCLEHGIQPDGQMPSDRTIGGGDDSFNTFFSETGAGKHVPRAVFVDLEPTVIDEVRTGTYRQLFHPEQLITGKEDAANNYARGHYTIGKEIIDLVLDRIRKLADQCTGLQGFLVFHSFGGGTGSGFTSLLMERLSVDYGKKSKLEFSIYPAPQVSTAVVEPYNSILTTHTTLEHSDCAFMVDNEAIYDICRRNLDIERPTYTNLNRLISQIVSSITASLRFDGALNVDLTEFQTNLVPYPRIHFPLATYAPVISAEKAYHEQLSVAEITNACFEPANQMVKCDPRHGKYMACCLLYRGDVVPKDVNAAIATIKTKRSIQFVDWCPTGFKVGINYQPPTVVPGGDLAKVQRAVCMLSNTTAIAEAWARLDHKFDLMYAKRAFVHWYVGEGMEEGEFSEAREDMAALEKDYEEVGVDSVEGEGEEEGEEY
T1 sequence (Q13509 whole entry R262A, chain 2 of 2): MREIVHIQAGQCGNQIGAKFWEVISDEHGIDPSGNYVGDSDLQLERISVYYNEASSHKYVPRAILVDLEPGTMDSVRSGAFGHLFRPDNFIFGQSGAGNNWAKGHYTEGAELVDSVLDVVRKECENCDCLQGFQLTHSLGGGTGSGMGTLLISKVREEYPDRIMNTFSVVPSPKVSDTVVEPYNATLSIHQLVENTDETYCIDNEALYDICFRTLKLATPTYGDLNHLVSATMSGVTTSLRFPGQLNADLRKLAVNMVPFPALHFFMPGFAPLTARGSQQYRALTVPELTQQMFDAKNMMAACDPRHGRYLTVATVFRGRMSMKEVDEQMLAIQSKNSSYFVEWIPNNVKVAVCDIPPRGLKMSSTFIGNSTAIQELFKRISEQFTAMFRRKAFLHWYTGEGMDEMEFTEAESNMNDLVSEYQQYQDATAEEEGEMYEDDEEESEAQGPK

[2] = target: T1, microtubules of recombinant human …; experiment: co-sedimentation; BG-549-labelled HK349 with MTs; x2 MA buffer, 1 mg/ml casein, 40 uM taxol, 1 U/ml apyrase (nucleotide-free state); conditions: both partners purified
[3] = target: T1, microtubules of recombinant human …; experiment: co-sedimentation; BG-549-labelled HK349 with MTs; x2 MA buffer, 1 mg/ml casein, 40 uM taxol, 1 mM AMPPNP and 1 U/ml apyrase (AMPPNP state); conditions: both partners purified
[4] = target: microtubules of recombinant human TUBA1B/TUBB3 tubulin with TUBB3 R262A (human) (UniProt P68363)
Sequence of microtubules of recombinant human TUBA1B/TUBB3 tubulin with TUBB3 R262A (human) (P68363 whole entry K40R, chain 1 of 2): as the sequence (P68363 whole entry K40R, chain 1 of 2) above
Sequence of microtubules of recombinant human TUBA1B/TUBB3 tubulin with TUBB3 R262A (human) (Q13509 whole entry R262A, chain 2 of 2, further chain): as the sequence (Q13509 whole entry R262A, chain 2 of 2) above

[5] = target: microtubules of recombinant human TUBA1B/TUBB3 tubulin with TUBB3 R262H (human) (UniProt P68363)
Sequence of microtubules of recombinant human TUBA1B/TUBB3 tubulin with TUBB3 R262H (human) (P68363 whole entry K40R, chain 1 of 2): as the sequence (P68363 whole entry K40R, chain 1 of 2) above
Sequence of microtubules of recombinant human TUBA1B/TUBB3 tubulin with TUBB3 R262H (human) (Q13509 whole entry R262H, chain 2 of 2, further chain): as the sequence (Q13509 whole entry R262A, chain 2 of 2) above, with A262H counted along it

[6] = target: T2, microtubules of recombinant human TUBA1B/TUBB3 tubulin, wild type (human, UniProt P68363-1 1-451; Q13509-1 1-450, K40R); experiment: single-molecule motility assay (total internal reflection fluorescence microscopy); MTs immobilised on PEG-coated glass via streptavidin and biotinylated nonmotile kinesin HK340-E236A; BG-549-labelled HK432 at 0.4 nM; x2 MA buffer pH 6.8, 1 mM ATP, 1 mg/ml casein, 10 uM taxol, 25 °C; conditions: both partners purified
T2 construct: Polymer of alpha/beta heterodimers stabilised with taxol; also called WT MTs; WT MT; source: HighFive insect cells (baculovirus), purified (DEAE Sepharose, TALON, anti-FLAG resin), polymerized with taxol; not shown: FLAG (DYKDDDDK)
T2 sequence (P68363 whole entry K40R, chain 1 of 2): as the sequence (P68363 whole entry K40R, chain 1 of 2) above
T2 sequence (Q13509 whole entry, chain 2 of 2): as the sequence (Q13509 whole entry R262A, chain 2 of 2) above, with A262R counted along it

[7] = target: T1, microtubules of recombinant human …; experiment: as above; conditions: both partners purified

Row | Binder | fold increase in Kd against the WT–WT pair [1] | fold increase in Kd against the WT–WT pair [2] | binding result [6] | also measured
1 | D279R KIF5B, single-headed construct HK349 (residues 1-349, SNAP tag, His6) (domain or fragment, human, UniProt P33176 1-349, looked up, fluorescent dye BG-549 (SNAP-surface 549) on the SNAP tag, kinesin-1 heavy chain KIF5B, residues 1-349, D279R in the L12 loop) MADLAECNIKVMCRFRPLNESEVNRGDKYIAKFQGEDTVVIASKPYAFDRVFQSSTSQEQVYNDCAKKIVKDVLEGYNGTIFAYGQTSSGKTHTMEGKLHDPEGMGIIPRIVQDIFNYIYSMDENLEFHIKVSYFEIYLDKIRDLLDVSKTNLSVHEDKNRVPYVKGCTERFVCSPDEVMDTIDEGKSNRHVAVTNMNEHSSRSHSIFLINVKQENTQTEQKLSGKLYLVDLAGSEKVSKTGAEGAVLDEAKNINKSLSALGNVISALAEGSTYVPYRRSKMTRILQDSLGGNCRTTIVICCSPSSYNESETKSTLLFGQRAKTIKNTVCVNVELTAEQWKKKYEKEKE | 2 fold | 10 fold | – | –
2 | single-headed KIF5B construct HK349 (residues 1-349, SNAP tag, His6) (domain or fragment, human, UniProt P33176 1-349, looked up, fluorescent dye BG-549 (SNAP-surface 549) on the SNAP tag, kinesin-1 heavy chain KIF5B, residues 1-349; monomeric construct; also called K349-SNAP-His; minimal motor) MADLAECNIKVMCRFRPLNESEVNRGDKYIAKFQGEDTVVIASKPYAFDRVFQSSTSQEQVYNDCAKKIVKDVLEGYNGTIFAYGQTSSGKTHTMEGKLHDPEGMGIIPRIVQDIFNYIYSMDENLEFHIKVSYFEIYLDKIRDLLDVSKTNLSVHEDKNRVPYVKGCTERFVCSPDEVMDTIDEGKSNRHVAVTNMNEHSSRSHSIFLINVKQENTQTEQKLSGKLYLVDLAGSEKVSKTGAEGAVLDEAKNINKSLSALGNVISALAEGSTYVPYRDSKMTRILQDSLGGNCRTTIVICCSPSSYNESETKSTLLFGQRAKTIKNTVCVNVELTAEQWKKKYEKEKE | ~6 fold | ~70 fold | – | fold increase in Kd against the WT–WT pair [3]: ~90 fold
3 | two-headed KIF5B motor, human KIF5B construct HK432 (residues 1-432, SNAP tag, His6) (domain or fragment, UniProt P33176 1-432, looked up, fluorescent dye BG-549 (SNAP-surface 549) on the SNAP tag, human kinesin-1 heavy chain KIF5B, residues 1-432; also called WT KIF5B) MADLAECNIKVMCRFRPLNESEVNRGDKYIAKFQGEDTVVIASKPYAFDRVFQSSTSQEQVYNDCAKKIVKDVLEGYNGTIFAYGQTSSGKTHTMEGKLHDPEGMGIIPRIVQDIFNYIYSMDENLEFHIKVSYFEIYLDKIRDLLDVSKTNLSVHEDKNRVPYVKGCTERFVCSPDEVMDTIDEGKSNRHVAVTNMNEHSSRSHSIFLINVKQENTQTEQKLSGKLYLVDLAGSEKVSKTGAEGAVLDEAKNINKSLSALGNVISALAEGSTYVPYRDSKMTRILQDSLGGNCRTTIVICCSPSSYNESETKSTLLFGQRAKTIKNTVCVNVELTAEQWKKKYEKEKEKNKILRNTIQWLENELNRWRNGETVPIDEQFDKEKANLEAFTVDKDITLTNDKPATAIGVIGNFTDAERRKCEEEIAKLYKQL | – | – | binds | MT-activated kinesin ATPase, apparent Michaelis–Menten constant K0.5MT as multiple of that with WT MTs [4]: 10 times of WT; MT-activated kinesin ATPase, kcat as percent of that with WT MTs [4]: 23 % of WT; MT-activated kinesin ATPase, apparent Michaelis–Menten constant K0.5MT as multiple of that with WT MTs [5]: 9.7 times of WT; MT-activated kinesin ATPase, kcat as percent of that with WT MTs [5]: 17 % of WT
4 | D279N KIF5B, construct HK432 (residues 1-432, SNAP tag, His6) (domain or fragment, human, UniProt P33176 1-432, looked up, fluorescent dye BG-549 (SNAP-surface 549) on the SNAP tag, human kinesin-1 heavy chain KIF5B, residues 1-432, D279N in the L12 loop; also called mutant HK432) MADLAECNIKVMCRFRPLNESEVNRGDKYIAKFQGEDTVVIASKPYAFDRVFQSSTSQEQVYNDCAKKIVKDVLEGYNGTIFAYGQTSSGKTHTMEGKLHDPEGMGIIPRIVQDIFNYIYSMDENLEFHIKVSYFEIYLDKIRDLLDVSKTNLSVHEDKNRVPYVKGCTERFVCSPDEVMDTIDEGKSNRHVAVTNMNEHSSRSHSIFLINVKQENTQTEQKLSGKLYLVDLAGSEKVSKTGAEGAVLDEAKNINKSLSALGNVISALAEGSTYVPYRNSKMTRILQDSLGGNCRTTIVICCSPSSYNESETKSTLLFGQRAKTIKNTVCVNVELTAEQWKKKYEKEKEKNKILRNTIQWLENELNRWRNGETVPIDEQFDKEKANLEAFTVDKDITLTNDKPATAIGVIGNFTDAERRKCEEEIAKLYKQL | – | – | binds | –
5 | D279R KIF5B, construct HK432 (residues 1-432, SNAP tag, His6) (domain or fragment, human, UniProt P33176 1-432, looked up, fluorescent dye BG-549 (SNAP-surface 549) on the SNAP tag, human kinesin-1 heavy chain KIF5B, residues 1-432, D279R in the L12 loop; also called mutant HK432) MADLAECNIKVMCRFRPLNESEVNRGDKYIAKFQGEDTVVIASKPYAFDRVFQSSTSQEQVYNDCAKKIVKDVLEGYNGTIFAYGQTSSGKTHTMEGKLHDPEGMGIIPRIVQDIFNYIYSMDENLEFHIKVSYFEIYLDKIRDLLDVSKTNLSVHEDKNRVPYVKGCTERFVCSPDEVMDTIDEGKSNRHVAVTNMNEHSSRSHSIFLINVKQENTQTEQKLSGKLYLVDLAGSEKVSKTGAEGAVLDEAKNINKSLSALGNVISALAEGSTYVPYRRSKMTRILQDSLGGNCRTTIVICCSPSSYNESETKSTLLFGQRAKTIKNTVCVNVELTAEQWKKKYEKEKEKNKILRNTIQWLENELNRWRNGETVPIDEQFDKEKANLEAFTVDKDITLTNDKPATAIGVIGNFTDAERRKCEEEIAKLYKQL | – | – | binds | binding frequency, fold of that of WT KIF5B to WT MT [7]: 2 fold
